# Measurements reported in patent publication US10501734B2, “Compositions and methods of use thereof for making polypeptides with many instances of nonstandard amino acids” (Yale University, priority 2014, dated 2019).
# Substitutions are numbered along the chain they refer to. Numbers in names are those of the source. Entries after “also recorded” stand apart in the source; their conditions may differ. Read-outs that look alike come from different tables or passages of the source.
# B1: pAcFRS.1.t2: pAcFRS variant A167D, R257C, F261E, SEQ ID NO: 6 (protein)
# chain: MDEFEMIKRNTSEIISEEELREVLKKDEKSALIGFEPSGKIHLGHYLQIKKMIDLQNAGFDIIILLADLHAYLNQKGELDEIRKIGDYNKKVFEAMGLKAKYVYGSEFQLDKDYTLNVYRLALKTTLKRARRSMELIAREDENPKVAEVIYPIMQVNGCHYRGVDVDVGGMEQRKIHMLARELLPKKVVCIHNPVLTGLDGEGKMSSSKGNFIAVDDSPEEIRAKIKKAYCPAGVVEGNPIMEIAKYFLEYPLTIKCPEKEGGDLTVNSYEELESLFKNKELHPMRLKNAVAEELIKILEPIRKRL
# B2: pAzFRS.2: pAcFRS variant E107T, F108Y, Q109M, SEQ ID NO: 13 (protein)
# chain: B1 chain with E107T, F108Y, Q109M, D167A, C257R, E261F
# B3: pAzFRS.1: pAcFRS variant D158V, I159M, L162D, A167Y, SEQ ID NO: 10 (protein)
# chain: B1 chain with G158V, C159M, R162D, D167Y, C257R, E261F
# B4: pAcFRS.2: pAcFRS variant L65V, A167D, SEQ ID NO: 7 (protein)
# chain: B1 chain with L65V, C257R, E261F
# What was measured:
# GFP(3TAG) [1] = format: cell-based, E. coli; conditions: chromosomally integrated AARS
# Experimental: (§1) Liquid cell cultures of strains harboring chromosomally integrated OTSs and GFP reporter plasmids were inoculated from frozen stocks and grown to confluence overnight. Cultures were then inoculated at 1:20 dilution in LBmin media supplemented with 30 μg/ml kanamycin. Strains were inoculated by addition of 1:20 confluent cell culture (grown overnight) and allowed to grow at 34° C. to an OD600 of 0.5-0.8 in a shaking plate incubator at 650 r.p.m (˜3 h). AARS expression was then induced by the addition of 0.2% arabinose, GFP expression was induced by the addition of 60 ng/ul anhydrotetracycline, and the appropriate nsAA was added to a concentration of 1 mM. Cells were incubated at 34° C. for an additional 16 h. Liquid cell cultures of strains harboring plasmid-based OTSs and GFP or ELP-GFP reporter plasmids were inoculated from frozen stocks and grown to confluence overnight. Cultures were then inoculated at 1:20 dilution in 2×YT media supplemented with 30 μg/ml kanamycin and 20 μg/ml chloramphenicol. […] Cells were allowed to grow at 34° C. to an OD600 of 0.5-0.8 in a shaking plate incubator at 650 r.p.m (˜3 h), reporter protein expression was then induced by the addition of 60 ng/ul anhydrotetracycline, and cells were incubated at 34° C. for an additional 16 h.
# (§2) For 384 well plate-based assays, fluorescence and OD600 were directly measured following expression. For 96 well plate-based assays, cells were centrifuged at 4,000 g for 4 min. Supernatant medium was removed and cells were resuspended in PBS. This process was repeated twice with PBS. GFP fluorescence was measured on a Biotek spectrophotometric plate reader using excitation and emission wavelengths of 395 and 509 nm, respectively). Fluorescence signals were normalized by dividing the fluorescence counts by the OD600 reading. The nsAAs used in this study were purchased from Sigma-Aldrich (St. Louis, Mo.), Chemlmpex (Wood Dale, Ill.), and Bachem (Torrance, Calif.). Solutions of nsAAs (50 mM) were made in water or 50 mM NaOH; these stock solutions were diluted 50- or 100-fold (to 1 mM final concentration) into medium used for bacterial growth.
# GFP(3TAG) [2] = experiment: nsAA library screening, GFP(3TAG) fluorescence in 384 well plates; format: cell-based, E. coli; conditions: GFP(3TAG) production in the presence of pAcF, pAzF and 236 other nsAAs
# Experimental: as §1
# as §2, with “growth. […]” for “growth.”
# [3] = ATP-PPi exchange assay (amino acid activation); format: biochemical; conditions: for Fold change: relative to progenitor pAcFRS
# Experimental: A 25 μl ATP-PPi exchange reaction contained the following components: 100 mM HEPES-KOH (pH 7.5), 30 mM KCl, 10 mM MgCl2, 2 mM DTT, 2 mM KF, 2 mM NaPPi, 5 mM ATP, […], 2 μCi/μl of […] (PerkinElmer) and varied concentrations of amino acids (0.25, 0.5, 1.25, 2.5, 5, 10, and 20 mM, respectively). The reactions were incubated at 37° C. Time points were taken at 2 minutes, 5 minutes and 10 minutes by plotting 1 μl aliquots from the reaction immediately to the PEI-cellulose plates (Merck). For each reaction, 1 μl of blank reaction mixture containing no enzymes was set as background. The reaction mixtures were separated on the plates in 1 M urea and 1 M monopotassium phosphate. The plates were then scanned in a Molecular Dynamics Storm 860 phosphorimager (Amersham Biosciences). The ratio of ATP to PPi was determined to monitor reaction progress. The kinetic constants were derived from plotting initial velocity of a series of reactions that contained varied concentrations of amino acids. The data were analyzed by GraFit 5.0 (Erithacus Software).
# tRNA = experiment: Aminoacylation assay (tRNA charging); format: biochemical; conditions: for Fold change: relative to progenitor pAcFRS
# Experimental: Template plasmid containing tRNA gene was purified with the plasmid maxi kit (Qiagen), and 100 μg of plasmid was digested with BstNI (New England Biolabs). The BstNI digested template DNA was purified by phenol chloroform extraction, followed by ethanol precipitation and resolved in double distilled water. A His-tagged T7 RNA polymerase was purified over column of Ni-NTA resin according to manufacturer's instructions (Qiagen). The transcription reaction [40 mM Tris (pH 8); 4 mM each of UTP, CTP, GTP, and ATP at pH 7.0; 22 mM MgCl2; 2 mM spermidine; 10 mM DTT; 6 μg pyrophosphatase (Roche Applied Science); 60 μg/mL BstNI digested DNA template, approximately 0.2 mg/ml T7 RNA polymerase] was performed in 10 ml reaction volumes for overnight at 37° C. The tRNA was purified on 12% denaturing polyacrylamide gel containing 8 M urea and TBE buffer (90 mM Tris, 90 mM boric acid, 2 mM EDTA). UV shadowing illuminates the pure tRNA band, which is excised and extracted three times with 1M sodium acetate pH 5.3 at 4° C. The tRNA extractions were then ethanol precipitated, dissolved in RNase-free distilled water, pooled, and finally desalted using a Biospin 30 column (BioRad). The ratio of aminoacylated tRNA to total tRNA was determined to monitor reaction progress.
# The tRNA was refolded by heating to 100° C. for 5 min and slow cooling to room temperature. At 65° C., MgC12, was added to a final concentration of 10 mM to aid folding. A His-tagged CCA adding enzyme was purified over column of Ni-NTA resin according to manufacturer's instructions (Qiagen). 16 μM folded tRNA in 50 mM Tris (pH 8.0), 20 mM MgCl2, 5 mM DTT and 50 μM NaPPi was incubated at room temperature for 1 hour with approximately 0.2 mg/ml CCA-adding enzyme and 1.6 μCi/μl of [α-32P]-labeled ATP (PerkinElmer). The sample was phenol/chloroform extracted and then passed over a Bio-spin 30 column (Bio-Rad) to remove excess ATP.
# A 20 μl aminoacylation reaction contained the following components: 50 mM HEPES-KOH (pH 7.2), 25 mM KCl, 10 mM MgCl2, 5 mM DTT, 10 mM ATP, 25 μg/ml pyrophosphatase (Roche Applied Science), 2 mM amino acids. All plateau tRNA aminoacylation levels were determined at 37° C. according to the reactions conditions described above with 500 nM enzyme, 5 μM unlabeled tRNA plus 100 nM 32P-labeled tRNA. Time points were taken at 5 minutes, 20 minutes and 60 minutes by removing 2 μl aliquots from the reaction and immediately quenching the reaction into an ice-cold 3 μl quench solution [0.66 μg/μl nuclease P1 (Sigma) in 100 mM sodium citrate (pH 5.0)]. For each reaction, 2 μl of blank reaction mixture containing no enzymes was added to the quench solution as the start time point. The nuclease P1 mixture was then incubated at room temperature for 30 min and 1 μl aliquots were spotted on PEI-cellulose plates (Merck) and developed in running buffer containing 5% acetic acid and 100 mM ammonium acetate. Radioactive spots for AMP and AA-AMP (representing free tRNA and aminoacyl-tRNA, respectively) were separated and then visualized and quantified by phosphor imaging by a Molecular Dynamics Storm 860 phosphorimager (Amersham Biosciences). The ratio of aminoacylated tRNA to total tRNA was determined to monitor reaction progress.
Molecule,higher GFP(3TAG) production compared with the progenitor enzyme (GFP(3TAG) [1]; pAcF) [fold],nsAA specificity (polyspecificity) (GFP(3TAG) [2]),Km ([3]; nsAA pAcF) [µM],kcat ([3]; nsAA pAcF),Fold change ([3]; nsAA pAcF),Km (tRNA; nsAA pAcF) [µM],kcat (tRNA; nsAA pAcF),Fold change (tRNA; nsAA pAcF),higher GFP(3TAG) production compared with the progenitor enzyme (GFP(3TAG) [1]; pAzF) [fold],Km ([3]; nsAA pAzF) [µM],kcat ([3]; nsAA pAzF),Fold change ([3]; nsAA pAzF),Km (tRNA; nsAA pAzF) [µM],kcat (tRNA; nsAA pAzF),Fold change (tRNA; nsAA pAzF),selectivity toward pAcF over pAzF (GFP(3TAG) [1]; GFP(3TAG) expression)
B1,~15,"polyspecifity for at least pAcF, pAzF, StyA, 4IF, 4BrF, 4ClF, 4MeF, 4Cf3F, MeY, 4NO2F, 4BuF, BuY, 2NaA, PheF",1690 ± 440,6.30 ± 0.46 ×10^−2 s^−1,5.47,27 ± 3,1.03 ± 0.06 ×10^−3 s^−1,5.22,–,–,–,–,–,–,–,–
B2,–,"polyspecific for at least pAcF, pAzF, StyA, 4IF, 4BrF, 4ClF, 4MeF, 4Cf3F, MeY, 4NO2F, 4BuF, BuY, 2NaA, PheF",–,–,–,–,–,–,~12,1250 ± 110,4.13 ± 0.86 ×10^−2 s^−1,2.26,32 ± 11,0.73 ± 0.06 ×10^−3 s^−1,3.67,–
B3,–,specific for pAzF; also recorded: exceptional specificity toward pAzF with almost complete exclusion of any other nsAA; also recorded: both more efficient and more specific for pAzF than previously reported pAzFRSs,–,–,–,–,–,–,~3.5,1180 ± 210,4.61 ± 0.18 ×10^−2 s^−1,2.68,38 ± 5,0.46 ± 0.18 ×10^−3 s^−1,1.48,–
B4,–,"polyspecifity for at least pAcF, pAzF, StyA, 4IF, 4BrF, 4ClF, 4MeF, 4Cf3F, MeY, 4NO2F, 4BuF, BuY, 2NaA, PheF",3130 ± 1730,5.28 ± 0.79 ×10^−2 s^−1,2.48,31 ± 7,0.58 ± 0.09 ×10^−3 s^−1,2.56,–,6400 ± 780,4.08 ± 0.20 ×10^−2 s^−1,0.44,33 ± 8,0.18 ± 0.02 ×10^−3 s^−1,0.88,increase in selectivity
